B1: S. pneumoniae HtrA PDZ domain (residues 285-393) (domain or fragment, Streptococcus pneumoniae, UniProt A0A0H2ZQD7 285-393, looked up)
chain: KVTRPALGIQMVNLSNVSTSDIRRLNIPSNVTSGVIVRSVQSNMPANGHLEKYDVITKVDDKEIASSTDLQSALYNHSIGDTIKITYYRNGKEETTSIKLNKSSGDLES
notes: HtrA serine protease of Streptococcus pneumoniae, PDZ domain alone, residues 285-393 (the methods print 285-493); cloned downstream of human SUMO1 to give the PDZ with no overhang; source: E. coli BL21(DE3), purified (Ni column, ULP1 cleavage, Ni column, preparative sizing column); not shown: 6xHis, N-terminal, cleaved; hSUMO1, N-terminal, cleaved

Ends that are not written are not given here.

Data set [1] addresses T1, S. pneumoniae HtrA protease domain (PD, residues 59-285) (Streptococcus pneumoniae, UniProt A0A0H2ZQD7 59-285).
T1 construct: HtrA serine protease of Streptococcus pneumoniae, protease domain alone, residues 59-285; 15N-labeled where it is the observed partner of an NMR titration; also called HtrA PD; PD WT; source: E. coli BL21(DE3), purified (Ni column, preparative sizing column)
T1 sequence: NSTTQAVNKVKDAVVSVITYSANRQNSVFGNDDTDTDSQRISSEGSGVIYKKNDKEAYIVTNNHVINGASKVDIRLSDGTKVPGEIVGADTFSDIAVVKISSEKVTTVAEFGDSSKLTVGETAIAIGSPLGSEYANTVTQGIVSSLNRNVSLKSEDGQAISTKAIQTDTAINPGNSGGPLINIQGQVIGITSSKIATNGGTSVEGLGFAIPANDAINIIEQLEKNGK
Description: NMR titration; 500 μM 15N-labeled PDZ titrated with unlabeled PD (0.5-4 mM); 15N-HSQC at 900 MHz, 35°C; 50 mM sodium phosphate pH 6, 50 mM NaCl; global fit of CSPs, single-site model. Conditions: both partners purified.

Data set [2] has as its target T1, S. pneumoniae HtrA protease domain (PD, …). Description: NMR titration; 500 μM 15N-labeled PD titrated with unlabeled PDZ (0.25-4 mM); 15N-HSQC at 900 MHz, 35°C; 50 mM sodium phosphate pH 6, 50 mM NaCl; global fit of CSPs, single-site model. The conditions noted are these: both partners purified.
For data set [3], the target named is B1. Briefly: NMR titration; 250 μM 15N-labeled HtrA PDZ titrated with recombinant β-casein fragments (final 400 μM); 15N-HSQC, global fit of CSPs. The conditions noted are these: both partners purified.
Data set [4] concerns the molecule itself. Briefly: SEC; size-exclusion chromatography of HtrA WT, HtrA S234A, β-casein and a mixture of HtrA S234A with excess β-casein.

For B1, the Kd (commonly the concentration at which binding is half-saturated) in data set [1] worked out at 1000 ± 500 µM; in data set [2] it was 480 ± 43 µM.

B2: β-casein residues 21-70 (domain or fragment, bovine, UniProt P02666 21-70, looked up)
chain: LNVPGEIVESLSSSEESITRINKKIEKFQSEEQQQTEDELQDKIHPFAQT
modifications: ends and bridges not checked
notes: bovine β-casein, residues 21-70; also called N-terminal segment (21-70); source: recombinantly produced in-house with the hSUMO1 system (as for the HtrA PDZ)
As to B2, the Kd in data set [3] was determined as 215 ± 35 µM.

B3: S. pneumoniae HtrA S234A full ectodomain (residues 59-393) (enzyme)
chain: NSTTQAVNKVKDAVVSVITYSANRQNSVFGNDDTDTDSQRISSEGSGVIYKKNDKEAYIVTNNHVINGASKVDIRLSDGTKVPGEIVGADTFSDIAVVKISSEKVTTVAEFGDSSKLTVGETAIAIGSPLGSEYANTVTQGIVSSLNRNVSLKSEDGQAISTKAIQTDTAINPGNAGGPLINIQGQVIGITSSKIATNGGTSVEGLGFAIPANDAINIIEQLEKNGKVTRPALGIQMVNLSNVSTSDIRRLNIPSNVTSGVIVRSVQSNMPANGHLEKYDVITKVDDKEIASSTDLQSALYNHSIGDTIKITYYRNGKEETTSIKLNKSSGDLES
notes: HtrA serine protease of Streptococcus pneumoniae, full ectodomain, residues 59-393, catalytic serine changed to alanine; the mutant's own cloning is not described; also called full HtrA S234A ectodomain; catalytic mutant; source: E. coli, purified (monomer and hexamer separated by size-exclusion chromatography)
For the molecule B3, the stoichiometry N – broadly, a count of units in the complex or per binding partner – in data set [4] was 6.
